± gives the uncertainty stated by the source.
Assay: self-splicing fitness, log relative to wild type (ln ratio); higher = more splicing; Tetrahymena group I intron in knt gene, E. coli kanamycin selection, DiMSum; sequences stand for … in CUCUCU…GGAGGGAAAAGUUAUCAGGCAUGCACCUGGUAGCUAGUCUUUAAACCAAUAGAUUGCAUCGGUUUAAAAGGCAAGACCGUCAAAUUGCGGGAAAGGGGUCAACAGCCGUUCAGUACCAAGUCUCAGGGGAAACUUUGAGAUGGCCUUGCAAAGGGUAUGGUAAUAAGCUGACGGACAUGGUCCUAACCACGCAGCCAAGUCCUAAGUCAACAGAUCUUCUGUUGAUAUGGAUGCAGUUCACAGACUAAAUGUCGGUCGGGGAAGAUGUAUUCUUCUCAUAAGAUAUAGUCGGACCUCUCCUUAAUGGGAGCUAGCGGAUGAAGUGAUGCAACACUGGAGCCGCUGGGAACUAAUUUGUAUGCGAAAGUAUAUUGAUUAGUUUUGGAGUACUCGUGGUCG
Summary of the method: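 Fitness was computed with DiMSum as the error-weighted combination of replicate fold changes, kanamycin versus none, each normalised to wild type. The library randomised all eight intron nucleotides of the P1ex region, with the intron placed in the knt kanamycin-resistance gene on pET-22b(+) in E. coli BL21(DE3). Six replicate transformations were grown overnight at 37°C or 30°C on LB agar with or without 25 μg/mL kanamycin, plus 100 μg/mL carbenicillin, 50 μM IPTG and 0.2% rhamnose. Pooled colonies were amplicon-sequenced on an Illumina HiSeq 2500.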

| Sequence | self-splicing fitness (ln) (30 °C) | self-splicing fitness (ln) (37 °C) |
| --- | --- | --- |
| CUCCAGCAAUAUUACGCUGA | -2.59 ± 0.18 | -2.65 ± 0.22 |
| CUCCAGCAAUAUUACGGACU | -2.61 ± 0.24 | -2.07 ± 0.33 |
| CUCCAGCAAUAUUACGGCCU | -3.5 ± 0.2 | -1.63 ± 0.24 |
| CUCCAGCAAUAUUACGGGUU | -3.83 ± 0.2 | -2.91 ± 0.2 |
| CUCCAGCAAUAUUACGGUAA | -1.4 ± 0.13 | -1.8 ± 0.15 |
| CUCCAGCAAUAUUACGUAAG | -0.512 ± 0.053 | 0.0902 ± 0.076 |
| CUCCAGCAAUAUUACGUAUG | -2.03 ± 0.077 | -1.8 ± 0.087 |
| CUCCAGCAAUAUUACGUGAA | -1.24 ± 0.065 | -0.328 ± 0.09 |
| CUCCAGCAAUAUUACGUGCG | -3.63 ± 0.27 | -1.84 ± 0.18 |
| CUCCAGCAAUAUUACGUGUU | -3.62 ± 0.13 | -2.31 ± 0.11 |
| CUCCAGCAAUAUUACGUUGA | -2.56 ± 0.18 | -2.87 ± 0.19 |
| CUCCAGCAAUAUUACGUUUC | -3.65 ± 0.28 | -3.12 ± 0.3 |
| CUCGAGCAAUAUUACGACUU | -3.19 ± 0.19 | -1.73 ± 0.23 |
| CUCGAGCAAUAUUACGAGAG | -1.71 ± 0.28 | – |
| CUCGAGCAAUAUUACGAUGU | – | -2.06 ± 0.3 |
| CUCGAGCAAUAUUACGCACC | – | -2.08 ± 0.32 |
| CUCGAGCAAUAUUACGCCAU | -2.93 ± 0.48 | -1.94 ± 0.35 |
| CUCGAGCAAUAUUACGCUCG | -2.72 ± 0.42 | – |
| CUCGAGCAAUAUUACGGACA | -2.98 ± 0.33 | -1.35 ± 0.29 |
| CUCGAGCAAUAUUACGGGCU | -3.17 ± 0.23 | -3.24 ± 0.42 |

| Sequence | self-splicing fitness (ln) (30 °C) | self-splicing fitness (ln) (37 °C) |
| --- | --- | --- |
| CUCGAGCAAUAUUACGGGGA | -2.71 ± 0.2 | -1.17 ± 0.18 |
| CUCGAGCAAUAUUACGGGUA | -4.2 ± 0.39 | -1.81 ± 0.16 |
| CUCGAGCAAUAUUACGGUAA | -3.49 ± 0.25 | -1.88 ± 0.24 |
| CUCGAGCAAUAUUACGGUCG | -3.59 ± 0.28 | -2.38 ± 0.34 |
| CUCGAGCAAUAUUACGGUUC | -3.14 ± 0.22 | -2.49 ± 0.3 |
| CUCGAGCAAUAUUACGUAUG | -2.93 ± 0.14 | -1.2 ± 0.13 |
| CUCGAGCAAUAUUACGUCUU | -4.4 ± 0.21 | -3.37 ± 0.21 |
| CUCGAGCAAUAUUACGUGUU | -2.06 ± 0.16 | -1.97 ± 0.19 |
| CUCUAGCAAUAUUACGAACU | – | -4.2 ± 0.42 |
| CUCUAGCAAUAUUACGAUUA | -3.01 ± 0.29 | -2.85 ± 0.25 |
| CUCUAGCAAUAUUACGAUUU | -3.27 ± 0.19 | -3.01 ± 0.3 |
| CUCUAGCAAUAUUACGCAAG | -3.98 ± 0.27 | -1.95 ± 0.2 |
| CUCUAGCAAUAUUACGCAUU | -4.34 ± 0.39 | -4 ± 0.39 |
| CUCUAGCAAUAUUACGCGCG | -3.15 ± 0.27 | -2.86 ± 0.28 |
| CUCUAGCAAUAUUACGGAAA | -3.74 ± 0.3 | -3.54 ± 0.23 |
| CUCUAGCAAUAUUACGGAAC | -2.81 ± 0.47 | – |
| CUCUAGCAAUAUUACGGAUC | -3.4 ± 0.21 | -3.33 ± 0.33 |
| CUCUAGCAAUAUUACGGAUG | -1.32 ± 0.092 | -0.418 ± 0.13 |
| CUCUAGCAAUAUUACGGAUU | -3.5 ± 0.21 | -2.75 ± 0.18 |

— the supplement of paper PMC7877785
